Molecular target: T1, Recombinant Fructose Bisphosphate Aldolase (rFBA), FBA-HAT fusion protein, 33.5 kDa (Streptococcus pneumoniae TIGR4, UniProt P0A4S1 1-293)
T1 construct: Expressed in E. coli BL21(DE3)pLysS and purified on Ni-NTA in 8 M urea; also called rFBA-HAT fusion protein; recombinant FBA; not shown: HAT (histidine) tag from the pHAT expression vector
T1 sequence (looked up): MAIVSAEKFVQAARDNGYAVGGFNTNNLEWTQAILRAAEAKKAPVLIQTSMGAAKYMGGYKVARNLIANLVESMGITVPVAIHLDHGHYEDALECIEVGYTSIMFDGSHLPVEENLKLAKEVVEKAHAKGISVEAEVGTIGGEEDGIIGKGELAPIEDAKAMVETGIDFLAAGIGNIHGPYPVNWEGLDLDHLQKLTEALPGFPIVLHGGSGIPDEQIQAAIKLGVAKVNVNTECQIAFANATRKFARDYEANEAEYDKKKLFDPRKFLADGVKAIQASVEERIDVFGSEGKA
Test: Western blot like overlay: rFBA on nitrocellulose probed with FCRP, rabbit anti-FCRP-KLH serum and anti-rabbit IgG

B1: Flamingo Cadherin receptor derived synthetic peptide (FCRP), 15 amino acids (peptide)
peptide: H-ADSDSDSDLSLEEER-OH
notes: Derived from human Flamingo homolog 1 (Q9NYQ7); also called FC peptide; FC derived synthetic peptide
- binding result: binds

— US20090186043A1 (BEN GURION UNIVERSITY OF THE NEGEV RESEARCH AND DEVELOPMENT …, published 2009)
